Drawing on paper PMC12102759 (2025), this text covers screen value for 75 variants.

The chains are these.
B1: PAIP1 peptide 124-139 (Polyadenylate-binding protein-interacting protein 1), 16-mer library wild type / PABPC1 PABC (PABPC1 PABC domain, residues 544-623) (parent complex)
chain 1: LMSKLSVNAPEFYPSG
chain 2: PLTASMLASAPPQEQKQMLGERLFPLIQAMHPTLAGKITGMLLEIDNSELLHMLESPESLRSKVDEAVAVLQAHQAKEAA

Variants of B1 are the subject of this assay. Put plainly: proteomic peptide phage display deep mutational scan (ProP-PD DMS): M13 P8 16-mer library selected against immobilised GST-tagged bait for four days (rounds), NGS of the eluted pools per day and pseudo-replica; bait immobilised on MaxiSorp plates (10 µg), library pre-cleared on GST, 2 h binding at 4 °C, five washes; one round per day, days 1-4; value from days 2 and 3.
As for chain 1 G16E, the screen value was 0.000703 average fractional NGS count over selection days 2 and 3 (reads of this peptide / all reads for the bait, averaged over ….

Turning to chain 1 G16V, the screen value is 0.0229 average fractional NGS count over selection days 2 and 3 (reads of this peptide / all reads for the bait, averaged over ….

Take chain 1 G16F: the screen value was 0.00158 average fractional NGS count over selection days 2 and 3 (reads of this peptide / all reads for the bait, averaged over ….

With chain 1 G16Y, the screen value was 0.00314 average fractional NGS count over selection days 2 and 3 (reads of this peptide / all reads for the bait, averaged over ….

In the case of chain 1 G16H, the screen value was 0.00575 average fractional NGS count over selection days 2 and 3 (reads of this peptide / all reads for the bait, averaged over ….

With chain 1 G16M, the screen value was 0.00176 average fractional NGS count over selection days 2 and 3 (reads of this peptide / all reads for the bait, averaged over ….

Regarding chain 1 G16T, the screen value is 0.000984 average fractional NGS count over selection days 2 and 3 (reads of this peptide / all reads for the bait, averaged over ….

Take chain 1 G16D: the screen value was 0.000205 average fractional NGS count over selection days 2 and 3 (reads of this peptide / all reads for the bait, averaged over ….

Consider chain 1 G16W, for which the screen value was 0.000405 average fractional NGS count over selection days 2 and 3 (reads of this peptide / all reads for the bait, averaged over ….

Turning to chain 1 G16K, the screen value is 0.000565 average fractional NGS count over selection days 2 and 3 (reads of this peptide / all reads for the bait, averaged over ….

As to chain 1 G16S, the screen value was 0.0008 average fractional NGS count over selection days 2 and 3 (reads of this peptide / all reads for the bait, averaged over ….

In the case of chain 1 G16R, the screen value is 0.000806 average fractional NGS count over selection days 2 and 3 (reads of this peptide / all reads for the bait, averaged over ….

Regarding chain 1 G16I, the screen value is 0.00186 average fractional NGS count over selection days 2 and 3 (reads of this peptide / all reads for the bait, averaged over ….

On to chain 1 G16Q, for which the screen value is 0.00204 average fractional NGS count over selection days 2 and 3 (reads of this peptide / all reads for the bait, averaged over ….

In the case of chain 1 A9S, the screen value is 0.000704 average fractional NGS count over selection days 2 and 3 (reads of this peptide / all reads for the bait, averaged over ….

Turning to chain 1 V7Y, the screen value is 0.000349 average fractional NGS count over selection days 2 and 3 (reads of this peptide / all reads for the bait, averaged over ….

Consider chain 1 V7H, for which the screen value was 0.00381 average fractional NGS count over selection days 2 and 3 (reads of this peptide / all reads for the bait, averaged over ….

Take chain 1 V7S: the screen value was 0.00035 average fractional NGS count over selection days 2 and 3 (reads of this peptide / all reads for the bait, averaged over ….

Turning to chain 1 V7A, the screen value was 0.00224 average fractional NGS count over selection days 2 and 3 (reads of this peptide / all reads for the bait, averaged over ….

Consider chain 1 V7P, for which the screen value was 0.00145 average fractional NGS count over selection days 2 and 3 (reads of this peptide / all reads for the bait, averaged over ….

chain 1 S15F: the screen value is 0.00282 average fractional NGS count over selection days 2 and 3 (reads of this peptide / all reads for the bait, averaged over ….

As to chain 1 S15T, the screen value was 0.000722 average fractional NGS count over selection days 2 and 3 (reads of this peptide / all reads for the bait, averaged over ….

On to chain 1 S15R, for which the screen value is 0.00163 average fractional NGS count over selection days 2 and 3 (reads of this peptide / all reads for the bait, averaged over ….

Turning to chain 1 S15M, the screen value is 0.00153 average fractional NGS count over selection days 2 and 3 (reads of this peptide / all reads for the bait, averaged over ….

With chain 1 S15P, the screen value is 0.000374 average fractional NGS count over selection days 2 and 3 (reads of this peptide / all reads for the bait, averaged over ….

Turning to chain 1 S15W, the screen value is 0.000557 average fractional NGS count over selection days 2 and 3 (reads of this peptide / all reads for the bait, averaged over ….

Consider chain 1 S15I, for which the screen value was 0.000837 average fractional NGS count over selection days 2 and 3 (reads of this peptide / all reads for the bait, averaged over ….

As for chain 1 S15E, the screen value is 0.0098 average fractional NGS count over selection days 2 and 3 (reads of this peptide / all reads for the bait, averaged over ….

chain 1 S15K: the screen value is 0.000858 average fractional NGS count over selection days 2 and 3 (reads of this peptide / all reads for the bait, averaged over ….

Turning to chain 1 S15D, the screen value was 0.00256 average fractional NGS count over selection days 2 and 3 (reads of this peptide / all reads for the bait, averaged over ….

Consider chain 1 S15Y, for which the screen value was 0.00169 average fractional NGS count over selection days 2 and 3 (reads of this peptide / all reads for the bait, averaged over ….

As for chain 1 S15H, the screen value is 0.0055 average fractional NGS count over selection days 2 and 3 (reads of this peptide / all reads for the bait, averaged over ….

On to chain 1 S15V, for which the screen value is 0.00767 average fractional NGS count over selection days 2 and 3 (reads of this peptide / all reads for the bait, averaged over ….

For the variant chain 1 S15G, the screen value was 0.00184 average fractional NGS count over selection days 2 and 3 (reads of this peptide / all reads for the bait, averaged over ….

With chain 1 S15Q, the screen value was 0.000451 average fractional NGS count over selection days 2 and 3 (reads of this peptide / all reads for the bait, averaged over ….

Turning to chain 1 S15A, the screen value is 0.00144 average fractional NGS count over selection days 2 and 3 (reads of this peptide / all reads for the bait, averaged over ….

For chain 1 P10D, the screen value is 0.00221 average fractional NGS count over selection days 2 and 3 (reads of this peptide / all reads for the bait, averaged over ….

Consider chain 1 P10K, for which the screen value is 0.000696 average fractional NGS count over selection days 2 and 3 (reads of this peptide / all reads for the bait, averaged over ….

With chain 1 P10L, the screen value was 0.00239 average fractional NGS count over selection days 2 and 3 (reads of this peptide / all reads for the bait, averaged over ….

Consider chain 1 P10M, for which the screen value is 0.000583 average fractional NGS count over selection days 2 and 3 (reads of this peptide / all reads for the bait, averaged over ….

On to chain 1 P10E, for which the screen value is 0.00302 average fractional NGS count over selection days 2 and 3 (reads of this peptide / all reads for the bait, averaged over ….

chain 1 P10H: the screen value was 0.000334 average fractional NGS count over selection days 2 and 3 (reads of this peptide / all reads for the bait, averaged over ….

With chain 1 P10N, the screen value is 0.00136 average fractional NGS count over selection days 2 and 3 (reads of this peptide / all reads for the bait, averaged over ….

As to chain 1 P10R, the screen value was 0.000887 average fractional NGS count over selection days 2 and 3 (reads of this peptide / all reads for the bait, averaged over ….

Consider chain 1 P10Q, for which the screen value was 0.000419 average fractional NGS count over selection days 2 and 3 (reads of this peptide / all reads for the bait, averaged over ….

chain 1 P10Y: the screen value is 0.000572 average fractional NGS count over selection days 2 and 3 (reads of this peptide / all reads for the bait, averaged over ….

Consider chain 1 P10I, for which the screen value is 0.000358 average fractional NGS count over selection days 2 and 3 (reads of this peptide / all reads for the bait, averaged over ….

For the variant chain 1 P10A, the screen value is 0.0041 average fractional NGS count over selection days 2 and 3 (reads of this peptide / all reads for the bait, averaged over ….

chain 1 P10S: the screen value was 0.00454 average fractional NGS count over selection days 2 and 3 (reads of this peptide / all reads for the bait, averaged over ….

On to chain 1 K4Q, for which the screen value was 0.00289 average fractional NGS count over selection days 2 and 3 (reads of this peptide / all reads for the bait, averaged over ….

In the case of chain 1 K4I, the screen value is 0.000664 average fractional NGS count over selection days 2 and 3 (reads of this peptide / all reads for the bait, averaged over ….

chain 1 K4P: the screen value was 0.0037 average fractional NGS count over selection days 2 and 3 (reads of this peptide / all reads for the bait, averaged over ….

With chain 1 K4R, the screen value is 0.000924 average fractional NGS count over selection days 2 and 3 (reads of this peptide / all reads for the bait, averaged over ….

Consider chain 1 K4H, for which the screen value was 0.00136 average fractional NGS count over selection days 2 and 3 (reads of this peptide / all reads for the bait, averaged over ….

As for chain 1 K4N, the screen value was 0.0102 average fractional NGS count over selection days 2 and 3 (reads of this peptide / all reads for the bait, averaged over ….

Consider chain 1 K4G, for which the screen value was 0.000301 average fractional NGS count over selection days 2 and 3 (reads of this peptide / all reads for the bait, averaged over ….

For the variant chain 1 K4E, the screen value was 0.000553 average fractional NGS count over selection days 2 and 3 (reads of this peptide / all reads for the bait, averaged over ….

With chain 1 K4A, the screen value was 0.00111 average fractional NGS count over selection days 2 and 3 (reads of this peptide / all reads for the bait, averaged over ….

For chain 1 K4T, the screen value was 0.00284 average fractional NGS count over selection days 2 and 3 (reads of this peptide / all reads for the bait, averaged over ….

As for chain 1 K4L, the screen value is 0.0004 average fractional NGS count over selection days 2 and 3 (reads of this peptide / all reads for the bait, averaged over ….

For chain 1 K4Y, the screen value was 0.00101 average fractional NGS count over selection days 2 and 3 (reads of this peptide / all reads for the bait, averaged over ….

For chain 1 K4D, the screen value was 0.000813 average fractional NGS count over selection days 2 and 3 (reads of this peptide / all reads for the bait, averaged over ….

Consider chain 1 K4M, for which the screen value is 0.000922 average fractional NGS count over selection days 2 and 3 (reads of this peptide / all reads for the bait, averaged over ….

In the case of chain 1 E11I, the screen value was 0.000759 average fractional NGS count over selection days 2 and 3 (reads of this peptide / all reads for the bait, averaged over ….

For the variant chain 1 E11V, the screen value is 0.00325 average fractional NGS count over selection days 2 and 3 (reads of this peptide / all reads for the bait, averaged over ….

In the case of chain 1 E11P, the screen value was 0.000423 average fractional NGS count over selection days 2 and 3 (reads of this peptide / all reads for the bait, averaged over ….

On to chain 1 E11T, for which the screen value was 0.000925 average fractional NGS count over selection days 2 and 3 (reads of this peptide / all reads for the bait, averaged over ….

For chain 1 E11A, the screen value was 0.00172 average fractional NGS count over selection days 2 and 3 (reads of this peptide / all reads for the bait, averaged over ….

On to chain 1 E11D, for which the screen value is 0.000612 average fractional NGS count over selection days 2 and 3 (reads of this peptide / all reads for the bait, averaged over ….

With chain 1 E11Y, the screen value is 0.000125 average fractional NGS count over selection days 2 and 3 (reads of this peptide / all reads for the bait, averaged over ….

With chain 1 E11S, the screen value was 0.00171 average fractional NGS count over selection days 2 and 3 (reads of this peptide / all reads for the bait, averaged over ….

Consider chain 1 E11M, for which the screen value was 0.000642 average fractional NGS count over selection days 2 and 3 (reads of this peptide / all reads for the bait, averaged over ….

As for chain 1 M2E, the screen value was 0.00221 average fractional NGS count over selection days 2 and 3 (reads of this peptide / all reads for the bait, averaged over ….

With chain 1 M2V, the screen value is 0.000531 average fractional NGS count over selection days 2 and 3 (reads of this peptide / all reads for the bait, averaged over ….

As for chain 1 M2W, the screen value is 0.000144 average fractional NGS count over selection days 2 and 3 (reads of this peptide / all reads for the bait, averaged over ….
